Laboratory results reported in paper PMC3770802 (Cytokine, 2013).
One block for each binder: values may come before it.

Experiments:
IL-10R2/StFP = target: T1, IL-10R2/StFP (human, UniProt Q08334 20-325); assay: FRET or BRET
T1 sequence (looked up): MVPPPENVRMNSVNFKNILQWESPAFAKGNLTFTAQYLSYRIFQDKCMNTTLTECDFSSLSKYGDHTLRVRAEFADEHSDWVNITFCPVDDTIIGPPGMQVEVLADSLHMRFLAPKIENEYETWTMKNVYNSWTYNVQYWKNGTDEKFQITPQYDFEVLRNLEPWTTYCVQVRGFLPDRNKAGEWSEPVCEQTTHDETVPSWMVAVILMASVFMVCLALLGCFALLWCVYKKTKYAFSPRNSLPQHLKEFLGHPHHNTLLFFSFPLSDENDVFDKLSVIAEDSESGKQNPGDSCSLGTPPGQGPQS

IFN-αR2c/ECFP = target: T2, IFN-αR2c/ECFP (human, UniProt P48551 27-515); assay: FRET or BRET
T2 sequence (looked up): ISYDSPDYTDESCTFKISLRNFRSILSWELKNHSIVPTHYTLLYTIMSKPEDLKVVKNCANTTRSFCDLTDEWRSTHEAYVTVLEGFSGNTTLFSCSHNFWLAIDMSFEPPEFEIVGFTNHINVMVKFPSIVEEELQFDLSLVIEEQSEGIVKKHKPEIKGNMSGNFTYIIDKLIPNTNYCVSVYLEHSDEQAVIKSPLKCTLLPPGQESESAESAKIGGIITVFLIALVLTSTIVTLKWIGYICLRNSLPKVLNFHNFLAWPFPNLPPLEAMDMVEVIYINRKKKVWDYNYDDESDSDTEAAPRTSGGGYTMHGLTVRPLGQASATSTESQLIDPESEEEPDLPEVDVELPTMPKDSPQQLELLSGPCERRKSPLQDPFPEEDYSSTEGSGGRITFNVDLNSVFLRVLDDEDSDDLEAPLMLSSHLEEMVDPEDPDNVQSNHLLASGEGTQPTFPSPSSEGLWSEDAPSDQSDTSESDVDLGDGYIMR

EC50* (relative) (IL-10R2/StFP): 200 pairs/cell | EC50* (relative), rarely seen (IL-10R2/StFP): 70 pairs/cell
B1: IFN-λR1/CiFP (receptor, human, UniProt Q8IU57 21-520, looked up)
chain: RPRLAPPQNVTLLSQNFSVYLTWLPGLGNPQDVTYFVAYQSSPTRRRWREVEECAGTKELLCSMMCLKKQDLYNKFKGRVRTVSPSSKSPWVESEYLDYLFEVEPAPPVLVLTQTEEILSANATYQLPPCMPPLDLKYEVAFWKEGAGNKTLFPVTPHGQPVQITLQPAASEHHCLSARTIYTFSVPKYSKFSKPTCFLLEVPEANWAFLVLPSLLILLLVIAAGGVIWKTLMGNPWFQRAKMPRALDFSGHTHPVATFQPSRPESVNDLFLCPQKELTRGVRPTPRVRAPATQQTRWKKDLAEDEEEEDEEDTEDGVSFQPYIEPPSFLGQEHQAPGHSEAGGVDSGRPRAPLVPSEGSSAWDSSDRSWASTVDSSWDRAGSSGYLAEKGPGQGPGGDGHQESLPPPEFSKDSGFLEELPEDNLSSWATWGTLPPEPNLVPGGPPVSLQTLTFCWESSPEEEEEARESEIEDSDAGSWGAESTQRTEDRGRTLGHYMAR

EC50* (relative), rarely seen (IFN-αR2c/ECFP): 4 pairs/cell
B2: IFN-αR1/EYFP (receptor, human, UniProt P17181 28-557, looked up)
chain: KNLKSPQKVEVDIIDDNFILRWNRSDESVGNVTFSFDYQKTGMDNWIKLSGCQNITSTKCNFSSLKLNVYEEIKLRIRAEKENTSSWYEVDSFTPFRKAQIGPPEVHLEAEDKAIVIHISPGTKDSVMWALDGLSFTYSLVIWKNSSGVEERIENIYSRHKIYKLSPETTYCLKVKAALLTSWKIGVYSPVHCIKTTVENELPPPENIEVSVQNQNYVLKWDYTYANMTFQVQWLHAFLKRNPGNHLYKWKQIPDCENVKTTQCVFPQNVFQKGIYLLRVQASDGNNTSFWSEEIKFDTEIQAFLLPPVFNIRSLSDSFHIYIGAPKQSGNTPVIQDYPLIYEIIFWENTSNAERKIIEKKTDVTVPNLKPLTVYCVKARAHTMDEKLNKSSVFSDAVCEKTKPGNTSKIWLIVGICIALFALPFVIYAAKVFLRCINYVFFPSLKPSSSIDEYFSEQPLKNLLLSTSEEQIEKCFIIENISTIATVEETNQTDEDHKKYSSQTSQDSGNYSNEDESESKTSEELQQDFV
